Biological target: the molecule itself
Test: native MS

B1: D166A mutant ADI (enzyme, UniProt P0C0B3 1-411, looked up)
chain: MTAQTPIHVYSEIGKLKKVLLHRPGKEIENLMPDYLERLLFDDIPFLEDAQKEHDAFAQALRDEGIEVLYLETLAAESLVTPEIREAFIDEYLSEANIRGRATKKAIRELLMAIEDNQELIEKTMAGVQKSELPEIPASEKGLTDLVESNYPFAIDPMPNLYFTRAPFATIGTGVSLNHMFSETRNRETLYGKYIFTHHPIYGGGKVPMVYDRNETTRIEGGDELVLSKDVLAVGISQRTDAASIEKLLVNIFKQNLGFKKVLAFEFANNRKFMHLDTVFTMVDYDKFTIHPEIEGDLRVYSVTYDNEELHIVEEKGDLAELLAANLGVEKVDLIRCGGDNLVAAGREQWNDGSNTLTIAPGVVVVYNRNTITNAILESKGLKLIKIHGSELVRGRGGPRCMSMPFEREDI
For B1, the “stoichiometry N” value was 2.

B2: D277A mutant ADI (enzyme, UniProt P0C0B3 1-411, looked up)
chain: MTAQTPIHVYSEIGKLKKVLLHRPGKEIENLMPDYLERLLFDDIPFLEDAQKEHDAFAQALRDEGIEVLYLETLAAESLVTPEIREAFIDEYLSEANIRGRATKKAIRELLMAIEDNQELIEKTMAGVQKSELPEIPASEKGLTDLVESNYPFAIDPMPNLYFTRDPFATIGTGVSLNHMFSETRNRETLYGKYIFTHHPIYGGGKVPMVYDRNETTRIEGGDELVLSKDVLAVGISQRTDAASIEKLLVNIFKQNLGFKKVLAFEFANNRKFMHLATVFTMVDYDKFTIHPEIEGDLRVYSVTYDNEELHIVEEKGDLAELLAANLGVEKVDLIRCGGDNLVAAGREQWNDGSNTLTIAPGVVVVYNRNTITNAILESKGLKLIKIHGSELVRGRGGPRCMSMPFEREDI
For B2, the “stoichiometry N” value was 2.

B3: H275A mutant ADI (enzyme, UniProt P0C0B3 1-411, looked up)
chain: MTAQTPIHVYSEIGKLKKVLLHRPGKEIENLMPDYLERLLFDDIPFLEDAQKEHDAFAQALRDEGIEVLYLETLAAESLVTPEIREAFIDEYLSEANIRGRATKKAIRELLMAIEDNQELIEKTMAGVQKSELPEIPASEKGLTDLVESNYPFAIDPMPNLYFTRDPFATIGTGVSLNHMFSETRNRETLYGKYIFTHHPIYGGGKVPMVYDRNETTRIEGGDELVLSKDVLAVGISQRTDAASIEKLLVNIFKQNLGFKKVLAFEFANNRKFMALDTVFTMVDYDKFTIHPEIEGDLRVYSVTYDNEELHIVEEKGDLAELLAANLGVEKVDLIRCGGDNLVAAGREQWNDGSNTLTIAPGVVVVYNRNTITNAILESKGLKLIKIHGSELVRGRGGPRCMSMPFEREDI
In the case of B3, the “stoichiometry N” value is reported as 2.

B4: C401A mutant ADI (enzyme, UniProt P0C0B3 1-411, looked up)
chain: MTAQTPIHVYSEIGKLKKVLLHRPGKEIENLMPDYLERLLFDDIPFLEDAQKEHDAFAQALRDEGIEVLYLETLAAESLVTPEIREAFIDEYLSEANIRGRATKKAIRELLMAIEDNQELIEKTMAGVQKSELPEIPASEKGLTDLVESNYPFAIDPMPNLYFTRDPFATIGTGVSLNHMFSETRNRETLYGKYIFTHHPIYGGGKVPMVYDRNETTRIEGGDELVLSKDVLAVGISQRTDAASIEKLLVNIFKQNLGFKKVLAFEFANNRKFMHLDTVFTMVDYDKFTIHPEIEGDLRVYSVTYDNEELHIVEEKGDLAELLAANLGVEKVDLIRCGGDNLVAAGREQWNDGSNTLTIAPGVVVVYNRNTITNAILESKGLKLIKIHGSELVRGRGGPRAMSMPFEREDI
In the case of B4, the “stoichiometry N” value is reported as 4.

B5: E220A mutant ADI (enzyme, UniProt P0C0B3 1-411, looked up)
chain: MTAQTPIHVYSEIGKLKKVLLHRPGKEIENLMPDYLERLLFDDIPFLEDAQKEHDAFAQALRDEGIEVLYLETLAAESLVTPEIREAFIDEYLSEANIRGRATKKAIRELLMAIEDNQELIEKTMAGVQKSELPEIPASEKGLTDLVESNYPFAIDPMPNLYFTRDPFATIGTGVSLNHMFSETRNRETLYGKYIFTHHPIYGGGKVPMVYDRNETTRIAGGDELVLSKDVLAVGISQRTDAASIEKLLVNIFKQNLGFKKVLAFEFANNRKFMHLDTVFTMVDYDKFTIHPEIEGDLRVYSVTYDNEELHIVEEKGDLAELLAANLGVEKVDLIRCGGDNLVAAGREQWNDGSNTLTIAPGVVVVYNRNTITNAILESKGLKLIKIHGSELVRGRGGPRCMSMPFEREDI
With B5 the “stoichiometry N” value was 2.

Source: PMC3735194 (mBio, 2013)
